According to publication PMC3433420:
“And” between values parts separate entries of the source, which are not always exact repeats. Equal entries are not always repeated. Values belong to the substance of their own block, whether it stands above or below them.

Experiments:
[1] = target: PLCG2 tandem SH2 domains (human); test: peptide or protein array; SH2/PTB proteins spotted on aldehyde slides, rhodamine peptide titrated in buffer B (20 mM HEPES, 100 mM KCl, 0.1% Tween-20, 5 mM DTT, pH 7.8), 1 h at room temperature; replicate assays
BLK SH2 domain (human) = BLK SH2 domain (human) (UniProt P51451); test: as above
[2] = target: RASA1 N-terminal SH2 domain (human) (UniProt P20936); test: as above
NCK1 SH2 domain (human) = NCK1 SH2 domain (human) (UniProt P16333); test: as above
ABL2 SH2 domain (human) = ABL2 SH2 domain (human) (UniProt P42684); test: as above
[3] = target: SYK N-terminal SH2 domain (human); test: as above
BTK SH2 domain (human) = BTK SH2 domain (human) (UniProt Q06187); test: as above
SRC SH2 domain (human) = SRC SH2 domain (human) (UniProt P12931); test: as above
[4] = target: SH2D3A SH2 domain (human) (UniProt Q9BRG2); test: as above
[5] = target: SH3BP2 SH2 domain (human) (UniProt P78314); test: as above
[6] = target: RASA1 tandem SH2 domains (human); test: as above
[7] = target: PIK3R2 tandem SH2 domains (human) (UniProt O00459); test: as above
[8] = target: SYK tandem SH2 domains (human); test: as above
PTK6 SH2 domain (human) = PTK6 SH2 domain (human) (UniProt Q13882); test: as above
TEC SH2 domain (human) = TEC SH2 domain (human) (UniProt P42680); test: as above
HCK SH2 domain (human) = HCK SH2 domain (human) (UniProt P08631); test: as above
TNS1 SH2 domain (human) = TNS1 SH2 domain (human) (UniProt Q9HBL0); test: as above
SHF SH2 domain (human) = SHF SH2 domain (human) (UniProt Q7M4L6); test: as above
YES1 SH2 domain (human) = YES1 SH2 domain (human) (UniProt P07947); test: as above
[9] = target: PTPN6 tandem SH2 domains (human); test: as above
[10] = target: SYK C-terminal SH2 domain (human); test: as above
[11] = target: SH2D1A SH2 domain (human) (UniProt O60880); test: as above
[12] = target: SH2D3C SH2 domain (human) (UniProt Q8N5H7); test: as above
BLNK SH2 domain (human) = BLNK SH2 domain (human) (UniProt Q8WV28); test: as above
[13] = target: ErbB2 Y1221 non-phosphorylated peptide, rhodamine-labelled (human); test: fluorescence polarisation; saturation binding in solution: rhodamine peptide fixed at 10 nM, protein titrated 0.002-10 uM, 20 min at room temperature; assay buffer 20 mM HEPES, 100 mM KCl, 0.1% Tween-20, 5 mM DTT, pH 7.8; apparent KD
[14] = target: ErbB3pY1307 phosphopeptide, rhodamine-labelled (human); test: as above
[15] = target: ErbB2pY1196 phosphopeptide, rhodamine-labelled (human); test: as above
[16] = target: ErbB2 Y735 non-phosphorylated peptide, rhodamine-labelled (human); test: as above

Sequence of SH3BP2 SH2 domain (human) (P78314 457-555): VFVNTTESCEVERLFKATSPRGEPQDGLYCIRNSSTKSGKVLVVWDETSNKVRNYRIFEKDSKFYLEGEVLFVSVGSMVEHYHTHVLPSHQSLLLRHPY
Sequence of BLK SH2 domain (human) (P51451 124-220): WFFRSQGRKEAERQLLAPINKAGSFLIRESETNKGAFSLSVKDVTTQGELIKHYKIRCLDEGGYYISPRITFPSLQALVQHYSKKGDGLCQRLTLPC
Sequence of YES1 SH2 domain (human) (P07947 158-255): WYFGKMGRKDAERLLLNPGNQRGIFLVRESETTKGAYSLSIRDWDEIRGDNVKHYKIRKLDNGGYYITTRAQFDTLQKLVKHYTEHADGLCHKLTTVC
Sequence of SHF SH2 domain (human) (Q7M4L6 323-418): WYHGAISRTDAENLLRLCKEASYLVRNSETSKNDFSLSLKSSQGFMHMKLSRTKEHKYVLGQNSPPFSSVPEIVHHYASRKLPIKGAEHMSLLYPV
Sequence of SH2D1A SH2 domain (human) (O60880 6-104): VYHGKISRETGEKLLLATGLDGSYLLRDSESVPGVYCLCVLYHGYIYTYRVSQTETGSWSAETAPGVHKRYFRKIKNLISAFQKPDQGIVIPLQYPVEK
Sequence of TEC SH2 domain (human) (P42680 247-345): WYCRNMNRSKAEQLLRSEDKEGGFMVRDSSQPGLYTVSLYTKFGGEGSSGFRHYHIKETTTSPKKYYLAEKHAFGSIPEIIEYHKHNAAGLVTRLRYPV
Sequence of BLNK SH2 domain (human) (Q8WV28 346-453): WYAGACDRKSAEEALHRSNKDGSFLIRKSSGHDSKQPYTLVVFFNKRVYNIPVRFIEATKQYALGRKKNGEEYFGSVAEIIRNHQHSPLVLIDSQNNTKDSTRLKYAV
Sequence of PIK3R2 tandem SH2 domains (human) (O00459 whole entry, the tested form may be a part): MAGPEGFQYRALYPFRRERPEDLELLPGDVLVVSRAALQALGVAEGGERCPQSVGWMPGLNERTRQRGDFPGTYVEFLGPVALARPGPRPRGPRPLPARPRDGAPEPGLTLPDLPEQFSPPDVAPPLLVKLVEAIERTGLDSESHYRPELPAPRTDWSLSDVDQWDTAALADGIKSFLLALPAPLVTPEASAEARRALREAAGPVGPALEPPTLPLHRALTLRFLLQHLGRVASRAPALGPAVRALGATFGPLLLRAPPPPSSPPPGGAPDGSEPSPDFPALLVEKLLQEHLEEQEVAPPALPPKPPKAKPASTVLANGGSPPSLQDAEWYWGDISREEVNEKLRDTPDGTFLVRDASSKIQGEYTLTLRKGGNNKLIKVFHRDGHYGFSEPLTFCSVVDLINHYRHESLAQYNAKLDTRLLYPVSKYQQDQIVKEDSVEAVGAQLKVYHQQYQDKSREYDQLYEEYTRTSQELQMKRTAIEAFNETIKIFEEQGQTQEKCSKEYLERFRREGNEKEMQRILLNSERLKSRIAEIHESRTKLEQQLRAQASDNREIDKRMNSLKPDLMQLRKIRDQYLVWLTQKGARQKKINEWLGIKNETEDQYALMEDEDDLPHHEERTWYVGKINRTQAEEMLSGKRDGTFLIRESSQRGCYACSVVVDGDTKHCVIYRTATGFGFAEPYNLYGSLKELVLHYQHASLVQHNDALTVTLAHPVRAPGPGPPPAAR
Sequence of PTK6 SH2 domain (human) (Q13882 78-170): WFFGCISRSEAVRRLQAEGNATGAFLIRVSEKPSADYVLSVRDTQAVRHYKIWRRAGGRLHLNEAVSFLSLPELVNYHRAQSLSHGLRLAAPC
Sequence of ABL2 SH2 domain (human) (P42684 173-263): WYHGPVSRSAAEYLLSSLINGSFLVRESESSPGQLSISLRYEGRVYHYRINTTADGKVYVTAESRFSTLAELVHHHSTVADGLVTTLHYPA
Sequence of TNS1 SH2 domain (human) (Q9HBL0 1567-1676): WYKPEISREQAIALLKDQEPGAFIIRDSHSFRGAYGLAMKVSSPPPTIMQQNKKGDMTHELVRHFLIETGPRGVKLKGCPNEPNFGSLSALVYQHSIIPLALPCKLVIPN
Sequence of BTK SH2 domain (human) (Q06187 281-377): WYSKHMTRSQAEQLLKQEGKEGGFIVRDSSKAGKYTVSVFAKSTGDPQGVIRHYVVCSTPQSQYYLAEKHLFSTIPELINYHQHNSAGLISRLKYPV
Sequence of SH2D3C SH2 domain (human) (Q8N5H7 220-319): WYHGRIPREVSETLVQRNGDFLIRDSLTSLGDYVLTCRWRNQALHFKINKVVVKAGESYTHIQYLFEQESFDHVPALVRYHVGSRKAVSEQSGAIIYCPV
Sequence of RASA1 N-terminal SH2 domain (human) (P20936 whole entry, the tested form may be a part): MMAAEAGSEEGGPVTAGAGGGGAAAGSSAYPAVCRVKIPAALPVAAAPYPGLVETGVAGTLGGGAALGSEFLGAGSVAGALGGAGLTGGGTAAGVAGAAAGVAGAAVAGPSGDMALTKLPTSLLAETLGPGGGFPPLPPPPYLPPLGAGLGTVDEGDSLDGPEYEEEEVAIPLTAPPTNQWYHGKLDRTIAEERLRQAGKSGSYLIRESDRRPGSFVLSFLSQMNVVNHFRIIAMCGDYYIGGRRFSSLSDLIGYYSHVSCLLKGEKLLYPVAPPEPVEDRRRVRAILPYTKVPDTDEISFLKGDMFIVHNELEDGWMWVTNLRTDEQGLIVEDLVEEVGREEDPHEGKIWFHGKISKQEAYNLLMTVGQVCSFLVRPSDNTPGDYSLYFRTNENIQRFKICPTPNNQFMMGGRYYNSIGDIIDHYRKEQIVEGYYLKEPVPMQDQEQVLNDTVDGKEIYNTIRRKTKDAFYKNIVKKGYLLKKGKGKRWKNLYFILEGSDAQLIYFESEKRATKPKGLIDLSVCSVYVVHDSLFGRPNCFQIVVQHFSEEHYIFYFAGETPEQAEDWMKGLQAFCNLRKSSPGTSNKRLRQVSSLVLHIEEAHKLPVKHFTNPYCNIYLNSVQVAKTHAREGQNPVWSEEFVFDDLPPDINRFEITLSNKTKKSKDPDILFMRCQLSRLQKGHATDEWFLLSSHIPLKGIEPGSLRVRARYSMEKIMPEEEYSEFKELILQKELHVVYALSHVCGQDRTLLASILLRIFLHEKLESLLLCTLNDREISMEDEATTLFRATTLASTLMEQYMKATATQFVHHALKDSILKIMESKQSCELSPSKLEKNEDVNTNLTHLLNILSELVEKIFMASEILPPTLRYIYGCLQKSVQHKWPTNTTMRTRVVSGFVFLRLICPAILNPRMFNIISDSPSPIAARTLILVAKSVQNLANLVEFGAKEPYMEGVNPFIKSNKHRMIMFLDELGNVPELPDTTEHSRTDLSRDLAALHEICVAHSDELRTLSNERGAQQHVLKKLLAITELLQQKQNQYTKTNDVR
Sequence of HCK SH2 domain (human) (P08631 144-241): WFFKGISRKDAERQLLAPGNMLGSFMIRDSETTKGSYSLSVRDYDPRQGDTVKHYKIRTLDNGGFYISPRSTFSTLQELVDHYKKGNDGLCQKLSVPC
Sequence of SH2D3A SH2 domain (human) (Q9BRG2 15-114): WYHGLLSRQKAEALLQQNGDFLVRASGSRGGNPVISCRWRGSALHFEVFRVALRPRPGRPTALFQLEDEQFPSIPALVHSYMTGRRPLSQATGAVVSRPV

Kd [1]: 577 nM and 2900 nM and 1010 nM
Kd (BLK SH2 domain (human)): 803 nM and 801 nM and 511 nM
Kd [2]: 3.46 µM
Kd (NCK1 SH2 domain (human)): 5.29 µM
Kd (ABL2 SH2 domain (human)): 1020 nM
Kd [3]: 801 nM and 3030 nM
Kd (BTK SH2 domain (human)): 1530 nM
Kd (SRC SH2 domain (human)): 1210 nM
Kd [4]: 773 nM
Kd [5]: 3860 nM and 1600 nM and 634 nM
Kd [6]: 81.9 µM
Kd [7]: 1470 nM
Kd [8]: 590 nM and 805 nM
Kd (PTK6 SH2 domain (human)): 801 nM
Kd (TEC SH2 domain (human)): 3.22 µM and 8.7 µM
Kd (HCK SH2 domain (human)): 888 nM
Kd (TNS1 SH2 domain (human)): 1600 nM
Kd (SHF SH2 domain (human)): 933 nM and 4390 nM
Kd (YES1 SH2 domain (human)): 526 nM and 1600 nM
Kd [9]: 5.42 µM
Kd [10]: 910 nM
Kd [11]: 748 nM and 1630 nM
Kd [12]: 27.4 µM
Kd (BLNK SH2 domain (human)): 46.8 µM
Substance: ErbB2 pY735 phosphopeptide, rhodamine-labelled, for protein microarrays

Kd [13]: 3.69 µM
Kd [14]: 1880 nM
Kd [15]: 1860 nM
Substance: RASA1 N-terminal SH2 domain (from UniProt P20936 1-1047) (domain or fragment)

Kd [16]: 14.9 µM
Substance: ZAP70 C-terminal SH2 domain (from UniProt P43403 1-619) (domain or fragment)
